Article PMC6363478

Biological target: rat EMILIN1 C-terminus fusion protein in pRSET-A (REM) (rat)
Test: SPR

- Kd: 270 nM
Substance: rat organ of Corti CNGA3 C-terminus fusion protein in pRSET-A (RA3-C) (domain or fragment)
